In this series the target is FUS165-422 (RGG1-RRM-RGG2) (UniProt P35637 165-422). In words: NMR 1H-15N HSQC chemical shift changes; 1:1 molar ratio; largest shifts near residues 286, 326, 369; 20 mM MES pH 6.5, 150 mM NaCl, RNase free; CW-EPR at room temperature; NMR temperature not given in the material. The settings on record: protein: recombinant; tags: His-MBP tag removed by TEV; hairpin.
Sequence of FUS165-422 (RGG1-RRM-RGG2) (P35637 165-422): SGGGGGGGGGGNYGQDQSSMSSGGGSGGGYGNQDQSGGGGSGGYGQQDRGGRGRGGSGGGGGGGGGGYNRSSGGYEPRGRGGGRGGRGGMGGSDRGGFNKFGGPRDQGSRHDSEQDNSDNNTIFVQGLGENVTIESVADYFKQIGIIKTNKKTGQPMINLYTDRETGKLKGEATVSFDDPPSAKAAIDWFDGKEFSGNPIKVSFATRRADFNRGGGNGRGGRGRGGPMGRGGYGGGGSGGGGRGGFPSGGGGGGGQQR

Turning to GGCAGAUUACAAUUCUAUUUGCC (structured_RNA) [hnRNPA2/B1 stem-loop RNA], the binding result is “binds”.

(Values after article PMC7708983, “A combined NMR and EPR investigation on the effect of the disordered RGG regions in the structure and the activity of the RRM domain of FUS”.)
